T1: activated human complement C1s (human, UniProt P09871 16-688)
T1 construct: also called aC1s; active C1s
T1 sequence: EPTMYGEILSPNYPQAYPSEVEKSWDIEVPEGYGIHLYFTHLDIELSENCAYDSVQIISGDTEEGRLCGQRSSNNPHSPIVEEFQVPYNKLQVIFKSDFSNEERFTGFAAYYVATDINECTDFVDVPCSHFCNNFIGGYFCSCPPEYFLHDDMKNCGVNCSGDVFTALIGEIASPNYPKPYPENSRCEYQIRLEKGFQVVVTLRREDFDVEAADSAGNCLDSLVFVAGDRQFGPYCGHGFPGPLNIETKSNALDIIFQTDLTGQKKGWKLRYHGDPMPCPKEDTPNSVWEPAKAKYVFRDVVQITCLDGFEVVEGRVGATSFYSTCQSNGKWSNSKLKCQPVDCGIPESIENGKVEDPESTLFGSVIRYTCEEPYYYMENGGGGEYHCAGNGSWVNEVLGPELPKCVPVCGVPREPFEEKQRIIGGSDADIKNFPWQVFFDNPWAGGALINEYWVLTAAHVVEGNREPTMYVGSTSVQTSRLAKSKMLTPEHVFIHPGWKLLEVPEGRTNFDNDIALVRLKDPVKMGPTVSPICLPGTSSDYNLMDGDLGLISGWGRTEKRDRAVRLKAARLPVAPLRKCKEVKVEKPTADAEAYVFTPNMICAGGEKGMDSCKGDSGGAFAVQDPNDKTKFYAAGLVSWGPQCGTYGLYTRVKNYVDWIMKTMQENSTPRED


What was measured:
[1] = target: T1, activated human complement C1s; test: direct binding of antibody to activated C1s (aC1s); assay format not stated
[2] = target: T1, activated human complement C1s; test: competition binding to active C1s; competitor 50 pM biotinylated TNT005 (Biot-005)
Procedure: All 15 combinations (VH variant 1+Vk variant 1; VH variant 1+Vk variant 2; VH variant 1+Vk variant 5; VH variant 2+Vk variant 1; VH variant 2+Vk variant 2; VH variant 2+Vk variant 5; VH variant 3+Vk variant 1; VH variant 3+Vk variant 2; VH variant 3+Vk variant 5; VH variant 4+Vk variant 1; VH variant 4+Vk variant 2; VH variant 4+Vk variant 5; VH variant 5+Vk variant 1; VH variant 5+Vk variant 2; VH variant 5+Vk variant 5) were produced. Each humanized variant was tested for the ability to compete with biotinylated TNT005 for binding to active C1s.

[3] = target: T1, activated human complement C1s; test: cell-based or functional assay
[4] = target: T1, activated human complement C1s; test: kinetic characterization of binding to active human C1s; instrument not stated; column head kdis
[5] = target: T1, activated human complement C1s; test: kinetic characterization of binding to active human C1s; instrument not stated

| EC50 [1] | IC50 [2] | IC50 of classical complement pathway inhibition (commercial CP activation assay) [3] | koff [4] | Kd [5] | kon [5] | Binder |
| --- | --- | --- | --- | --- | --- | --- |
| 0.0559 nM | 0.0395 nM | 1.06 nM | – | – | – | TNT005.001 (antibody, V domains shown, Unlabelled parental antibody; also called parental TNT005 (not biotinylated)) VH: EVQLQQSGAELVRPGASVKLSCTASGFNIKDDYIHWVKQRPEQGLEWIGRIDPADGHTKYAPKFQVKATITADTSSNTAYLQLSSLTSEDTAVYYCARYGYGREVFDYWGQGTTLTVSS VL: DIVLTQSPASLAVSLGQRATISCKASQSVDYDGDSYMNWYQQKTGQPPKILIYDASNLESGIPARFSGSGSGTDFTLNIHPVEEEDAAIYYCQQSNEDPWTFGGGTKLEIK |
| 0.163 nM | 0.183 nM | 1.26 nM | 0.00049 s⁻¹ | 0.585 nM | 838000 M⁻¹ s⁻¹ | humanized TNT005 variant VH variant 3+Vk variant 2 (antibody, V domains shown, also called VH variant 3 + VL variant 2) VH: QVQLVQSGAEVKKPGASVKLSCTASGFNIKDDYIHWVKQAPGQGLEWIGRIDPADGHTKYAPKFQVKVTITADTSTSTAYLELSSLRSEDTAVYYCARYGYGREVFDYWGQGTTVTVSS VL: DIVLTQSPDSLAVSLGERATISCKASQSVDYDGDSYMNWYQQKPGQPPKILIYDASNLESGIPARFSGSGSGTDFTLTISSLEPEDFAIYYCQQSNEDPWTFGGGTKVEIK |
| 0.0828 nM | – | – | – | – | – | biotinylated TNT005 (antibody, V domains shown, Parental antibody; also called Biot-005; parental TNT005) VH: EVQLQQSGAELVRPGASVKLSCTASGFNIKDDYIHWVKQRPEQGLEWIGRIDPADGHTKYAPKFQVKATITADTSSNTAYLQLSSLTSEDTAVYYCARYGYGREVFDYWGQGTTLTVSS VL: DIVLTQSPASLAVSLGQRATISCKASQSVDYDGDSYMNWYQQKTGQPPKILIYDASNLESGIPARFSGSGSGTDFTLNIHPVEEEDAAIYYCQQSNEDPWTFGGGTKLEIK |
| 0.119 nM | 0.158 nM | 1.31 nM | – | – | – | humanized TNT005 variant VH variant 4+Vk variant 2 (antibody, V domains shown, also called VH variant 4 + VL variant 2) VH: QVQLVQSGAEVKKPGASVKVSCTASGFNIKDDYIHWVRQAPGQGLEWIGRIDPADGHTKYAPKFQVKVTITADTSTSTAYMELSSLRSEDTAVYYCARYGYGREVFDYWGQGTTVTVSS VL: DIVLTQSPDSLAVSLGERATISCKASQSVDYDGDSYMNWYQQKPGQPPKILIYDASNLESGIPARFSGSGSGTDFTLTISSLEPEDFAIYYCQQSNEDPWTFGGGTKVEIK |
| 0.107 nM | 0.129 nM | 1.26 nM | 0.000168 s⁻¹ | 0.217 nM | 776000 M⁻¹ s⁻¹ | humanized TNT005 variant VH variant 1+Vk variant 5 (antibody, V domains shown, also called VH variant 1 + VL variant 5) VH: EVQLVQSGAELKKPGASVKLSCTASGFNIKDDYIHWVKQAPGQGLEWIGRIDPADGHTKYAPKFQVKATITADTSTNTAYLQLSSLTSEDTAVYYCARYGYGREVFDYWGQGTTVTVSS VL: DIVLTQSPDSLAVSLGERATISCKASQSVDYDGDSYMNWYQQKPGQPPKLLIYDASNLESGIPARFSGSGSGTDFTLTISSLEPEDFAVYYCQQSNEDPWTFGGGTKVEIK |
| 0.138 nM | 0.158 nM | 1.38 nM | – | – | – | humanized TNT005 variant VH variant 3+Vk variant 5 (antibody, V domains shown, also called VH variant 3 + VL variant 5) VH: QVQLVQSGAEVKKPGASVKLSCTASGFNIKDDYIHWVKQAPGQGLEWIGRIDPADGHTKYAPKFQVKVTITADTSTSTAYLELSSLRSEDTAVYYCARYGYGREVFDYWGQGTTVTVSS VL: DIVLTQSPDSLAVSLGERATISCKASQSVDYDGDSYMNWYQQKPGQPPKLLIYDASNLESGIPARFSGSGSGTDFTLTISSLEPEDFAVYYCQQSNEDPWTFGGGTKVEIK |
| 0.165 nM | 0.137 nM | 1.33 nM | – | – | – | humanized TNT005 variant VH variant 5+Vk variant 5 (antibody, V domains shown, also called VH variant 5 + VL variant 5) VH: QVQLVQSGAEVKKPGASVKVSCAASGFNIKDDYIHWVRQAPGQGLEWIGRIDPADGHTKYAPKFQVKVTITADTSTSTAYMELSSLRSEDTAVYYCARYGYGREVFDYWGQGTTVTVSS VL: DIVLTQSPDSLAVSLGERATISCKASQSVDYDGDSYMNWYQQKPGQPPKLLIYDASNLESGIPARFSGSGSGTDFTLTISSLEPEDFAVYYCQQSNEDPWTFGGGTKVEIK |
| 0.137 nM | 0.144 nM | 1.23 nM | 0.000208 s⁻¹ | 0.251 nM | 829000 M⁻¹ s⁻¹ | humanized TNT005 variant VH variant 2+Vk variant 1 (antibody, V domains shown, also called VH variant 2 + VL variant 1) VH: EVQLVQSGAEVKKPGASVKLSCTASGFNIKDDYIHWVKQAPGQGLEWIGRIDPADGHTKYAPKFQVKATITADTSTNTAYLELSSLRSEDTAVYYCARYGYGREVFDYWGQGTTVTVSS VL: DIVLTQSPDSLAVSLGERATISCKASQSVDYDGDSYMNWYQQKTGQPPKILIYDASNLESGIPARFSGSGSGTDFTLTISSLEEEDFAIYYCQQSNEDPWTFGGGTKVEIK |
| 0.152 nM | 0.152 nM | 1.35 nM | – | – | – | humanized TNT005 variant VH variant 4+Vk variant 1 (antibody, V domains shown, also called VH variant 4 + VL variant 1) VH: QVQLVQSGAEVKKPGASVKVSCTASGFNIKDDYIHWVRQAPGQGLEWIGRIDPADGHTKYAPKFQVKVTITADTSTSTAYMELSSLRSEDTAVYYCARYGYGREVFDYWGQGTTVTVSS VL: DIVLTQSPDSLAVSLGERATISCKASQSVDYDGDSYMNWYQQKTGQPPKILIYDASNLESGIPARFSGSGSGTDFTLTISSLEEEDFAIYYCQQSNEDPWTFGGGTKVEIK |
| 0.088 nM | 0.0557 nM | 1.14 nM | 0.00017 s⁻¹ | 0.208 nM | 818000 M⁻¹ s⁻¹ | humanized TNT005 variant VH variant 1+Vk variant 2 (antibody, V domains shown, also called VH variant 1 + VL variant 2) VH: EVQLVQSGAELKKPGASVKLSCTASGFNIKDDYIHWVKQAPGQGLEWIGRIDPADGHTKYAPKFQVKATITADTSTNTAYLQLSSLTSEDTAVYYCARYGYGREVFDYWGQGTTVTVSS VL: DIVLTQSPDSLAVSLGERATISCKASQSVDYDGDSYMNWYQQKPGQPPKILIYDASNLESGIPARFSGSGSGTDFTLTISSLEPEDFAIYYCQQSNEDPWTFGGGTKVEIK |
| 0.168 nM | 0.179 nM | 1.27 nM | – | – | – | humanized TNT005 variant VH variant 3+Vk variant 1 (antibody, V domains shown, also called VH variant 3 + VL variant 1) VH: QVQLVQSGAEVKKPGASVKLSCTASGFNIKDDYIHWVKQAPGQGLEWIGRIDPADGHTKYAPKFQVKVTITADTSTSTAYLELSSLRSEDTAVYYCARYGYGREVFDYWGQGTTVTVSS VL: DIVLTQSPDSLAVSLGERATISCKASQSVDYDGDSYMNWYQQKTGQPPKILIYDASNLESGIPARFSGSGSGTDFTLTISSLEEEDFAIYYCQQSNEDPWTFGGGTKVEIK |
| 0.201 nM | 0.124 nM | 1.2 nM | 0.000197 s⁻¹ | 0.228 nM | 864000 M⁻¹ s⁻¹ | humanized TNT005 variant VH variant 1+Vk variant 1 (antibody, V domains shown, also called VH variant 1 + VL variant 1) VH: EVQLVQSGAELKKPGASVKLSCTASGFNIKDDYIHWVKQAPGQGLEWIGRIDPADGHTKYAPKFQVKATITADTSTNTAYLQLSSLTSEDTAVYYCARYGYGREVFDYWGQGTTVTVSS VL: DIVLTQSPDSLAVSLGERATISCKASQSVDYDGDSYMNWYQQKTGQPPKILIYDASNLESGIPARFSGSGSGTDFTLTISSLEEEDFAIYYCQQSNEDPWTFGGGTKVEIK |
| 0.205 nM | 0.156 nM | 1.54 nM | – | – | – | humanized TNT005 variant VH variant 4+Vk variant 5 (antibody, V domains shown, also called VH variant 4 + VL variant 5) VH: QVQLVQSGAEVKKPGASVKVSCTASGFNIKDDYIHWVRQAPGQGLEWIGRIDPADGHTKYAPKFQVKVTITADTSTSTAYMELSSLRSEDTAVYYCARYGYGREVFDYWGQGTTVTVSS VL: DIVLTQSPDSLAVSLGERATISCKASQSVDYDGDSYMNWYQQKPGQPPKLLIYDASNLESGIPARFSGSGSGTDFTLTISSLEPEDFAVYYCQQSNEDPWTFGGGTKVEIK |
| 0.164 nM | 0.148 nM | 1.31 nM | – | – | – | humanized TNT005 variant VH variant 5+Vk variant 2 (antibody, V domains shown, also called VH variant 5 + VL variant 2) VH: QVQLVQSGAEVKKPGASVKVSCAASGFNIKDDYIHWVRQAPGQGLEWIGRIDPADGHTKYAPKFQVKVTITADTSTSTAYMELSSLRSEDTAVYYCARYGYGREVFDYWGQGTTVTVSS VL: DIVLTQSPDSLAVSLGERATISCKASQSVDYDGDSYMNWYQQKPGQPPKILIYDASNLESGIPARFSGSGSGTDFTLTISSLEPEDFAIYYCQQSNEDPWTFGGGTKVEIK |
